Results from PMC12700550, “DLL4^+ neutrophils promote Notch1-mediated endothelial PANoptosis to exacerbate acute lung injury in sepsis” (The Journal of Clinical Investigation, 2025).
Several values for one entry are separate records, joined by “and”; a condition that tells them apart may be missing. Equal entries are not always repeated.

Key:
[1] = tested on: c-caspase-3; assay: c/t caspase-3 in lungs of CLP mice, Western blot; format: in vivo, mouse; settings: 10 mg/kg NDI, 20 h; for lung c/t caspase-3 (Figure 5E): individual mice, 10 mg/kg
Protocol: Sepsis was induced in mice by cecal ligation and puncture (CLP) as described previously ([45], [46]). Mice were anesthetized with isoflurane to a surgical plane and placed in a supine position. CLP was performed through a midline laparotomy. The abdomen was shaved and disinfected. Through a 2 cm midline incision, the cecum was exposed and then ligated with a 4-0 silk suture 1 cm proximal from the distal cecal extremity. For 20-hour CLP experiments, the cecum was punctured twice with a 22-gauge needle. A small amount of cecal content was extruded through both holes, and the ligated cecum was returned to the peritoneal cavity. The wound was closed in layers. For 10-day sepsis survival studies, the cecum was punctured once with a 22-gauge needle. A small amount of cecal content was extruded. Mice were allocated to the vehicle and adoptive transfer of DLL4^+ neutrophils or DLL4^– neutrophils groups. […] Vehicle groups received an equivalent volume of PBS, while treatment groups received NDI 10 mg/kg in […] PBS via retro-orbital injection after CLP. This dose was chosen primarily on the basis of our laboratory’s prior experience, we have consistently used this dose in mouse CLP models with reproducible efficacy and without observable toxicity ([39], [44]). Sham-operated animals underwent a laparotomy without CLP. After closure, the mice received a subcutaneous injection of 0.5 mL of normal saline to overcome surgery-induced dehydration. For 20-hour experiments, animals were not injected with antibiotics; however, for survival studies, animals were given 0.5 mg per kg body weight imipenem (lot 4D21K05, WG Critical Care LLC) subcutaneously in 0.5 mL saline once at the end of CLP. All mice were subcutaneously injected with a single dose of 0.1 mg/kg buprenorphine after CLP.
PVECs and lung tissue were collected in previous steps. Whole-cell proteins were extracted, and the protein concentration was measured using an ABC protein assay kit (catalog 5000002, Bio-Rad). […] Bands were detected using an Odyssey FC Dual-Mode Imaging system 2800 (LI-COR).

[2] = tested on: DLL4 expression on WT BMDNs; assay: Frequency of DLL4^+ neutrophils (Ly6G^+DLL4^+), WT mouse BMDNs, flow cytometry; format: cell-based; settings: for percentage of DLL4^+ neutrophils (Figure 1C): eCIRP 1 μg/mL, WT BMDNs 1 × 10^6/mL
Description: Mice were anesthetized by 2% isoflurane inhalation, and the femora and tibiae were dissected. The bone marrow was flushed out with calcium- and magnesium-free HBSS using a 25-gauge needle into a Petri dish. Suspensions of cells were filtered through a 70 μm cell strainer (Corning), and bone marrow–derived neutrophils (BMDNs) were purified by negative selection using the EasySep mouse neutrophil enrichment kit (catalog 19762, STEMCELL Technologies). The purity of the sorted neutrophils was assessed by staining of the cells with APC-Ly6G antibody (clone 1A8, BioLegend) using a BD LSRFortessa flow cytometer (BD Biosciences).
In the time course experiments, BMDNs (1 × 10^6) were stimulated with eCIRP (1 μg/mL) for 2, 4, 6, and 12 hours. In the dose-response experiments, BMDNs (1 × 10^6) were treated with 0, 0.2, 0.5, or 1.0 μg/mL eCIRP for 12 hours. Single-cell suspensions were then stained with APC-conjugated anti–mouse Ly6G (clone 1A8, catalog 127614, BioLegend) and PE-conjugated anti-DLL4 (clone HMD4-1, catalog 130807, BioLegend), and analyzed by flow cytometry (BD LSRFortessa, BD Biosciences) to detect DLL4^+ neutrophils (Ly6G^+DLL4^+). Unstained cells were used to set voltages, and single-color controls were applied for compensation adjustment. Two hundred fifty microliters of whole blood obtained from sham, CLP, and PBS- or NDI-treated mice was taken into Falcon 15 mL conical tubes, and 5 mL red blood cell (RBC) lysis buffer (BD Biosciences) was added. After 1–2 minutes of incubation at room temperature, the samples were centrifuged at 300g for 10 minutes. Supernatants were aspirated, and the cell pellet was washed by suspension of the cells in 5 mL fluorescence-activated cell sorting (FACS) buffer containing 2% fetal bovine serum and centrifuged at 300g for 10 minutes. The supernatant was discarded, and the cell pellet was dissolved in […] FACS buffer. Lung tissues were finely diced using a sterile surgical blade and suspended in Ca^++- and Mg^++-free Hanks balanced salt solution (HBSS; Corning). Tissue digestion was performed in HBSS containing 100 U/mL of collagenase I (Worthington Biochemical) and 20 U/mL DNase I (Worthington Biochemical) at 37°C for 30 minutes with periodic shaking. Digested tissue fragments were crushed with a 10 mL syringe plunger and passed through a 70 μm cell strainer (Corning). Lysis of RBCs in lung cell suspensions was conducted using RBC lysis buffer (BD Biosciences). The isolated lung cells were counted using a microscope (Eclipse TS100, Nikon). To detect mouse DLL4^+ neutrophils, single-cell suspensions were stained with anti-mouse APC-Ly6G (clone 1A8, catalog 127614, BioLegend) and PE-DLL4 (clone HMD4-1, catalog 130807, BioLegend) and assessed for the detection of DLL4^+ neutrophils (Ly6G^+DLL4^+) by flow cytometry (BD LSRFortessa, BD Biosciences). Unstained cells were used to establish the flow cytometer voltage setting, and single-color positive controls were used to adjust the compensation. The acquisition was performed on 50,000 events using a BD LSRFortessa flow cytometer (BD Biosciences), and data were analyzed with FlowJo software (Tree Star). BMDNs were stimulated with eCIRP ([…]) for 2 hours. This time point was selected to maximize the viability and functionality of DLL4^+ neutrophils for downstream experiments, given their relatively short lifespan. After stimulation, cells were washed with PBS and resuspended in 1 mL FACS buffer, and DLL4^+ neutrophils (Ly6G^+DLL4^+) and DLL4^– neutrophils (Ly6G^+DLL4^–) were sorted by flow cytometry using a BD FACSAria IIu cell sorter (BD Biosciences).

Molecule	lung c/t caspase-3 (Figure 5E) ([1]; DLL4^+ neutrophils + CLP)	effect on lung c-caspase-3 ([1]; DLL4^+ neutrophils/sepsis)	lung c/t caspase-3 (Figure 5E) ([1]; DLL4^– neutrophils + CLP)	percentage of DLL4^+ neutrophils (Figure 1D) ([2]; 0.2 μg/mL rmCIRP, 12 h, WT BMDNs, individual replicates)	percentage of DLL4^+ neutrophils (Figure 1D) ([2]; 0.5 μg/mL rmCIRP, 12 h, WT BMDNs, individual replicates)	increase in DLL4^+ neutrophils compared with baseline ([2]; 1 μg/mL eCIRP, 12 hours)	percentage of DLL4^+ neutrophils (Figure 1D) ([2]; 1 μg/mL rmCIRP, 12 h, WT BMDNs, individual replicates)	frequency of DLL4^+ neutrophils (Figure 1E) ([2]; WT BMDNs, 1 μg/mL eCIRP, 12 h, individual replicates)	percentage of DLL4^+ neutrophils (Figure 1C) ([2]; 2 h, individual replicates)	percentage of DLL4^+ neutrophils (Figure 1C) ([2]; 4 h, individual replicates)	percentage of DLL4^+ neutrophils (Figure 1C) ([2]; 6 h, individual replicates)	percentage of DLL4^+ neutrophils (Figure 1C) ([2]; 12 h, individual replicates)	effect on frequency of DLL4^+ neutrophils ([2]; mouse BMDNs)
ECAGSPCHNGGTCEDGI [NDI]	0.946 and 0.8954 and 1.049 and 0.8952 and 1.09 and 1.113 and 0.9785 and 0.9235 and 1.192	attenuated the expression/activation	1.224 and 1.151 and 0.8027 and 0.9965 and 0.8798 and 1.281	–	–	–	–	–	–	–	–	–	–
eCIRP: extracellular cold-inducible RNA-binding protein; recombinant murine, produced in our laboratory (protein, UniProt P60824 1-172, looked up) Cold-inducible RNA-binding …: MASDEGKLFVGGLSFDTNEQALEQVFSKYGQISEVVVVKDRETQRSRGFGFVTFENIDDAKDAMMAMNGKSVDGRQIRVDQAGKSSDNRSRGYRGGSAGGRGFFRGGRSRGRGFSRGGGDRGYGGGRFESRSGGYGGSRDYYASRSQGGSYGYRSSGGSYRDSYDSYATHNE	–	–	–	6.79% and 7.39% and 5.07% and 2.01% and 1.58% and 2.94%	9.65% and 8% and 2.23% and 3.04% and 4.63% and 3.6%	greater than 10 fold	9.46% and 10.2% and 10.3% and 9.59% and 14.64% and 11.2% and 19.6%	10.6% and 7.8% and 13.4% and 4.22% and 4.99%	2.37% and 2.69% and 2.61% and 1.38% and 2.29% and 2.02%	2.2% and 3.33% and 2.32% and 3.85% and 1.73% and 1.34%	5.6% and 3.69% and 4.86% and 3.28% and 2.75% and 2.78%	25.8% and 23.2% and 5.76% and 10.3% and 13.1% and 19.7%	significantly increased the frequency (percentage) of DLL4^+ neutrophils in a time- and dose-dependent manner
